Results taken from US20140341916A1, “THERAPEUTIC COMBINATIONS AND METHODS OF TREATING MELANOMA” (Genentech, Inc., priority 2011, published 2014).

B1: Hu5E9v1-ADC: anti-ETBR antibody Hu5E9v1 conjugated to MMAE through a vc linker (antibody drug conjugate) (conjugate)
VH: EVQLVESGGGLVQPGGSLRLSCAASGYTFTSYWMQWVRQAPGKGLEWIGTIYPGDGDTSYAQKFKGRATLSTDKSKNTAYLQMNSLRAEDTAVYYCARWGYAYDIDNWG
VL: DIQMTQSPSSLSASVGDRVTITCKSSQSLLDSDGKTYLNWLQQKPGKAPKRLIYLVSKLDSGVPSRFSGSGSGTDFTLTISSLQPEDFATYYCWQGTHFPYTFGQGTKVEIK

Key:
[1] = system: UACC-257X2.2 melanoma xenograft; assay: In vivo efficacy, subcutaneous melanoma xenograft, tumor volume / % TGI; design: species or system mice; conditions: for % TGI Single Agent BRAFi vs. control / % TGI Single Agent Anti-ETBR ADC vs. control: UACC257-X2.2
Method: (§1) Next, efficacy studies were performed using the melanoma cells lines in the xenografts mouse models described above. All studies were conducted in accordance with the Guide for the Care and Use of Laboratory Animals (Ref: Institute of Laboratory Animal Resources (NIH publication no. 85-23), Washington, D.C.: National Academies Press; 1996). 10- to 14-week-old female CRL Nu/Nu or NCr nude mice from Charles River Laboratories were inoculated subcutaneously in the dorsal right flank with either 5×10^6 UACC-257X2.2 cells in HBSS with Matrigel or 5×10^6 A2058 cells in HBSS with Matrigel. When tumor volumes reached approximately 200 mm^3 (day 0), animals were randomized into groups of 10 each.
(§2) For single agent efficacy studies, the anti-ETBR ADC candidate Hu5E9v1-ADC was administered as a single intravenous (IV) injection on day 0 at 1 mpk, 3 mpk, or 6 mpk (mg/kg). A control ADC antibody and vehicle control were also administered. Average tumor volumes with standard deviations were determined from 10 animals per group. Tumor volumes were measured twice per week until study end.
To do this, the in vivo efficacy for various combinations of Hu5E9v1-ADC and BRAFi-945 were evaluated against the UACC-257X2.2 melanoma model described above. Tumors were grown to an average size of approximately 200 mm^3, whereupon animals were randomized into groups of 10 each. An appropriate vehicle control (Klucel LF) or BRAFi-945 at doses of 1 mpk, 6 mpk or 20 mpk were administered orally once a day×21 days beginning on study Day 0. A single 1 mpk or 3 mpk dose of Hu5E9v1-ADC or control, a histidine buffer #8, was administered intraveneously (after two doses of 945) via tail vein at study Day 1.
(§3) The average tumor volumes were determined from 10 animals per group. Tumor volumes were measured twice per week until study end. Tumor volumes were measured in two dimensions (length and width) using UltraCal IV calipers (Model 54 10 111, Fred V. Fowler Company; Newton, Mass.). The following formula was used with Excel, version 12.2.8 (Microsoft; Redmond, Wash.) to calculate tumor volume: Tumor Volume (mm3)=[…]
(§4) To analyze the repeated measurement of tumor volumes from the same animals over time, a mixed-modeling Linear Mixed Effects (LME) approach was used (Pinheiro et al. 2009). This approach can address both repeated measurements and a modest drop-out rate due to non-treatment-related termination of animals prior to study end. Cubic regression splines were used to fit a non-linear profile to the time courses of log 2 tumor volume at each dose level. These non-linear profiles were then related to dose within the mixed model. Tumor growth inhibition (TGI) as a percentage of vehicle was calculated as percent area under the fitted curve (AUC) per day in relation to the vehicle, using the following formula:
(§5) Using this formula, a TGI value of 100% indicates tumor stasis, of >1% but <100% indicates tumor growth delay, and of >100% indicates tumor regression. To get uncertainty intervals (UIs) for % TGI, the fitted curve and the fitted covariance matrix were used to generate a random sample as an approximation to the distribution of % TGI. The random sample is composed of 1000 simulated realizations of the fitted-mixed model, where the % TGI has been recalculated for each realization. Here, in the reported UI is the value for which 95% of the time, the recalculated values of % TGI will fall in this region given the fitted model. The 2.5 and 97.5 percentiles of the simulated distribution were used as the […] UIs.

A2058 melanoma xenograft = assay: as above; design: species or system mice; conditions: for % TGI Single Agent Anti-ETBR ADC vs. control: A2058
Method: as §1, §2, §3, §4, §5
Tumors were grown to an average size of approximately 200 mm^3, whereupon animals were randomized into groups of 10 each. […] A single dose of Hu5E9v1-ADC at either 3 mpk or 6 mpk or control, a histidine buffer #8, was administered intraveneously into the tail vein on day 1 (after three doses of RG7204).
To do this, the in vivo efficacy for various combinations of Hu5E9v1-ADC and MEKi-623 and/or MEKi-973 were evaluated against A2058 and SK-MEL-23 and IPC-298 melanoma in vivo models, performed as described above in Example 4. An appropriate methylcellulose tween vehicle control (0.5% methylcellulose, 0.2% Tween-80 (MCT) or MEK inhibitor at doses of 1 mpk, 3 mpk or 7.5 mpk were administered orally once a day×21 days beginning on study Day 0. A single 3 mpk or 6 mpk dose of Hu5E9v1-ADC or control, a histidine buffer #8, was administered intraveneously (after two doses of a MEK inhibitor) via tail vein at study Day 1.

A2058 melanoma cell line = assay: In vitro cell killing, CellTiter-Glo cell viability; assay type: cell-based, human; conditions: A2058 (low ETBR copy number), 5 days
Method: (§6) The melanoma cell lines A2058 and UACC-257X2.2 were grown in appropriate media at 37° C. and 5% CO2. To assess the effects of Hu5E9v1-ADC on cell viability, cells were plated at 1,500 per well in 50 μL, of normal growth medium in 96-well clear-bottom black plates. Twenty-four hours later, an additional 50 μL, of culture medium with serial dilutions of Hu5E9v1-ADC concentrations was added to triplicate wells. Five days later, cell survival was determined using CellTiter-Glo Luminescent Cell Viability Reagent (G7572; Promega Corporation) and with an EnVision 2101 Mutilabel Reader (Perkin-Elmer).

[2] = system: UACC-257X2.2 melanoma cell line; assay: as above; assay type: cell-based, human; conditions: UACC-257X2.2 (high ETBR copy number), 5 days
Method: as §6

ETBR = molecular target: T1, ETBR (Homo sapiens, UniProt P24530); assay: Scatchard analysis of antibody binding sites per cell with 125I-labeled Hu5E9v1-ADC; conditions: 4 h on ice, estimated
T1 sequence (P24530 27-442): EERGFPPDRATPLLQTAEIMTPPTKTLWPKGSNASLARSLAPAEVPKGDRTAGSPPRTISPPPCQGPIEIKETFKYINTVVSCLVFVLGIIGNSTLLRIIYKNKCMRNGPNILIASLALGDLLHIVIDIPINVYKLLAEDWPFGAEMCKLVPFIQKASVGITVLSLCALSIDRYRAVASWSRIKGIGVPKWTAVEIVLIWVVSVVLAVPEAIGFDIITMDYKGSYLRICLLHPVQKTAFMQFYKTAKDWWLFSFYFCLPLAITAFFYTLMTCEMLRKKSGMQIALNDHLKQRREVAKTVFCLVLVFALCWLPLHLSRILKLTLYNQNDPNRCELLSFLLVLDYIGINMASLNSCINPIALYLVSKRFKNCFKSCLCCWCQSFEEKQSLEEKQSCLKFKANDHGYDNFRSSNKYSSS
Method: A determination of antibody binding sites per cell was performed (Scatchard analysis): The affinity constant and the number of cell surface binding sites for each antibody were estimated by incubating the melanoma cells for 4 h on ice with a fixed concentration of ^125I-labeled Hu5E9v1-ADC combined with increasing concentrations of unlabeled Hu5E9v1-ADC. The data were analyzed by nonlinear curve fitting using an analysis program method.

[3] = system: COLO 829 melanoma xenograft; assay: In vivo efficacy, subcutaneous melanoma xenograft, tumor volume / % TGI; design: species or system mice
Method: The average tumor volumes were determined from 10 animals per group. Tumor volumes were measured twice per week until study end. Tumor volumes were measured in two dimensions (length and width) using UltraCal IV calipers (Model 54 10 111, Fred V. Fowler Company; Newton, Mass.). The following formula was used with Excel, version 12.2.8 (Microsoft; Redmond, Wash.) to calculate tumor volume: Tumor Volume (mm3)=(length×width)×0.5
To get uncertainty intervals (UIs) for % TGI, the fitted curve and the fitted covariance matrix were used to generate a random sample as an approximation to the distribution of % TGI. The random sample is composed of 1000 simulated realizations of the fitted-mixed model, where the % TGI has been recalculated for each realization. Here, in the reported UI is the value for which 95% of the time, the recalculated values of % TGI will fall in this region given the fitted model. The 2.5 and 97.5 percentiles of the simulated distribution were used as the upper and lower UIs.
The COLO 829 xenograft model was chosen as representative of medium levels of ETBR expression, further increasing the stringency of the combination studies. Tumors were grown to an average size of approximately 200 mm^3, whereupon animals were randomized into groups of 9 each. An appropriate vehicle control (Klucel LF) or G00044364.1-12 (RG7204) at doses of 10 mpk or 30 mpk were administered orally twice a day for 21 days starting on day 0.

[4] = Anti-ETBR ADC single dose 3 mg/kg
[5] = Anti-ETBR ADC single dose 1 mg/kg

Molecule	% TGI Single Agent BRAFi vs. control ([1]; BRAFi Qdx21 1 mg/kg) [%]	% TGI Single Agent BRAFi vs. control ([1]; BRAFi Qdx21 6 mg/kg) [%]	% TGI Single Agent BRAFi vs. control ([1]; BRAFi Qdx21 20 mg/kg) [%]	% TGI Single Agent Anti-ETBR ADC vs. control (A2058 melanoma xenograft; [4]) [%]	% TGI Single Agent Anti-ETBR ADC vs. control (A2058 melanoma xenograft; Anti-ETBR ADC single dose 6 mg/kg) [%]	single agent efficacy, tumor burden (A2058 melanoma xenograft; single IV dose 3 mg/kg)	single agent efficacy, tumor burden (A2058 melanoma xenograft; single IV dose 6 mpk, relative to matching dose of control ADC or vehicle)	cell killing by ADC titration relative to control ADC (A2058 melanoma cell line)	cell killing by ADC titration relative to control ADC [2]	number of Hu5E9v1-ADC binding sites (ETBR; A2058 cells)	number of Hu5E9v1-ADC binding sites (ETBR; UACC-257X2.2 cells)	% TGI Single Agent Anti-ETBR ADC vs. control [1, 5] [%]	% TGI Single Agent Anti-ETBR ADC vs. control [1, 4] [%]	single agent efficacy, tumor volume ([1]; single IV dose 1 mg/kg on day 0)	single agent efficacy, tumor volume ([1]; single IV dose of 3 and 6 mg/kg on day 0)	% TGI Single Agent Anti-ETBR ADC vs. control [3, 5] [%]	% TGI Single Agent Anti-ETBR ADC vs. control [3, 4] [%]
Nc1ncnc2c(C(=O)Nc3c(Cl)ccc(NS(=O)(=O)CCCF)c3F)csc12 [BRAFi-945, 4-amino-N-(6-chloro-2-fluoro-3-(3-fluoropropylsulfonamido)phenyl)thieno[3,2-d]pyrimidine-7-carboxamide]	66	109	136														
B1				39	85	Efficacy was not apparent	partial reduction in tumor burden	specific cell killing relative to control ADC	specific cell killing relative to control ADC	1,582 sites per cell	33,939 sites per cell	69	112	efficacy was not apparent	sustained tumor regression	31	33
